Target: Nsp8 NTD (SARS-CoV-2, UniProt P0DTD1)
Assay: NMR

B1: model dsRNA (dsRNA)
RNA 1: GAUGCUACGCGGUAGUA
RNA 2: GUACUACCGCGUAGCAUC
Kd: ~14.1 µM
